Drawing on patent US20240167082A1, this text covers share of drops with labelled cells that cross the Cy5 fluorescence threshold, time and time to Cy5 fluorescence in drops with Jurkat cells from a mixed Jurkat and mouse pool for one substance.

A value given as a limit tells only on which side of the number the result lay.

The target of this assay is CD3 (cell surface marker on Jurkat cells and on Ramos cells) (human) (UniProt P07766). The assay can be described thus: cell-based or functional assay.
UniProt P07766, sequence (P07766 23-207): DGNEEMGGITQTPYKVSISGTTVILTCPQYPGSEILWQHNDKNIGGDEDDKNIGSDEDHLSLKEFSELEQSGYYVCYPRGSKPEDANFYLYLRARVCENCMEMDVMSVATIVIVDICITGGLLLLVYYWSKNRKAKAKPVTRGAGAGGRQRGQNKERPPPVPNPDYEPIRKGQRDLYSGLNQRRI

Turning to “TotalSeqB anti-CD3 antibody (Biolegend cat no. 300477; anti-human CD3-totalseqB Ab, clone UCHT1)”, the share of drops with labelled cells that cross the Cy5 fluorescence threshold is > 95%; the time at which drops cross the Cy5 fluorescence threshold fell in the range of 20 to 50 min; the time at which drops cross the Cy5 fluorescence threshold, Jurkat cells in droplets lay in the range of 20 to 38 min; the time to Cy5 fluorescence in drops with Jurkat cells from a mixed Jurkat and mouse pool came out at 20 min.
